Substitutions are numbered along the chain they refer to.
T1: human CD73 expressed on the cell surface (human, UniProt P21589 27-549)
T1 sequence: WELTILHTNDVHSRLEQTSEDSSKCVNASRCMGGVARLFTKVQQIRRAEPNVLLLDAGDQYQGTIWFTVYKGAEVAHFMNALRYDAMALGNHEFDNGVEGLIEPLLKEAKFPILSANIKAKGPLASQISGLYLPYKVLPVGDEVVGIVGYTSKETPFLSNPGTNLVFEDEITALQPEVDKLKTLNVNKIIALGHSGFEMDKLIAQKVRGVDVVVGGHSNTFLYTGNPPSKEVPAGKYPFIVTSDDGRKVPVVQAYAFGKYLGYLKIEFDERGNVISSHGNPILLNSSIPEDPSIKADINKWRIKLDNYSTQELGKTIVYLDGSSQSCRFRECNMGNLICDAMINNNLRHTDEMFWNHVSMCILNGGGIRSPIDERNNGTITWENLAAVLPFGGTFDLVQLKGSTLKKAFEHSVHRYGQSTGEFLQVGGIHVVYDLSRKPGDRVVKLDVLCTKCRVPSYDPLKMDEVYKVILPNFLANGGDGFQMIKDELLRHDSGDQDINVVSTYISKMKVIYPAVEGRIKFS

T2: human CD73 antigen (human, UniProt P21589 27-547)
T2 construct: also called Biotinylated Human CD73
T2 sequence (looked up): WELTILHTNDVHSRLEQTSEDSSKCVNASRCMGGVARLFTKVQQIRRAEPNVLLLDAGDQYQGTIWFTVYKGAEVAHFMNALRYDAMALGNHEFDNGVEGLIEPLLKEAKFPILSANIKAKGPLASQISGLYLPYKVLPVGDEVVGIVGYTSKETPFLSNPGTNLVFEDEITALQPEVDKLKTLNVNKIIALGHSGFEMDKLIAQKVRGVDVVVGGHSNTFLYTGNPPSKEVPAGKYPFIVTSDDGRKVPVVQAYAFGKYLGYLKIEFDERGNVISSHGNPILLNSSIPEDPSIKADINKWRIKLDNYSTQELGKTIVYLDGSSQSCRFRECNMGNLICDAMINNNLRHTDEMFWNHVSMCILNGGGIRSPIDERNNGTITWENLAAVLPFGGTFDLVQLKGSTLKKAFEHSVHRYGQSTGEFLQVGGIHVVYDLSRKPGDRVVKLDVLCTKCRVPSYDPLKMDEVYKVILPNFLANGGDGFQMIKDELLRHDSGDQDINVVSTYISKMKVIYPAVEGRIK

T3: cynomolgus monkey CD73 antigen (cynomolgus monkey, UniProt A0A2K5V5U7 27-547)
T3 construct: also called Biotinylated cynomolgus monkey CD73
T3 sequence: T2 sequence (looked up) with M199T, T350A, V466I

T4: soluble CD73 protein (ACRO, CD3-H52H7) (human, UniProt P21589 27-547)
T4 sequence (looked up): T2 sequence (looked up)

T5: CD73 mutant Y161A/K162A/V170A (human, UniProt P21589 27-549)
T5 construct: As m43; also called mutant 3
T5 chain: T1 sequence with Y135A, K136A, V144A

T6: CD73 mutant K136A/Y161A/K162A/V170A (human, UniProt P21589 27-549)
T6 construct: As m43; also called mutant 13
T6 chain: T1 sequence with K110A, Y135A, K136A, V144A

T7: CD73 mutant L159A/Y161A/K162A/V170A (human, UniProt P21589 27-549)
T7 construct: As m43; also called mutant 16
T7 chain: T1 sequence with L133A, Y135A, K136A, V144A

B1: Oleclumab (antibody, V domains shown)
VH: EVQLLESGGGLVQPGGSLRLSCAASGFTFSSYAYSWVRQAPGKGLEWVSAISGSGGRTYYADSVKGRFTISRDNSKNTLYLQMNSLRAEDTAVYYCARLGYGRVDEWGRGTLVTVSS
VL: QSVLTQPPSASGTPGQRVTISCSGSLSNIGRNPVNWYQQLPGTAPKLLIYLDNLRLSGVPDRFSGSKSGTSASLAISGLQSEDEADYYCATWDDSHPGWTFGGGTKLTVL
B2: ADI-37505 (antibody, human IgG4 S228P, kappa, F234A L235A, V domains shown)
VH: QVQLVESGGGLVQPGGSLRLSCAASGFTFSNYAMTWVRQAPGKGLEWVSAISGRGTATYYADSVKGRFTISRDNSKNTLYLQMNSLRAEDTAVYYCARGGPYGSGSYWDTFDYWGQGTLVTVSS
VL: EIVMTQSPATLSVSPGERATLSCRASQSVSSNLAWYQQKPGQAPRLLIYGASTRATGIPARFSGSGSGTEFTLTISSLQSEDFAVYYCQQYTNHYTFGGGTKVEIKR
B3: ADI-37506 (antibody, human IgG4 S228P, kappa, F234A L235A, V domains shown)
VH: B2 VH with Q1E, V5L, Y32L, T35S, G55A, A57S
VL: B2 VL
B4: ADI-34086 (antibody, human IgG4 S228P, kappa, F234A L235A, V domains shown)
VH: B2 VH with Q1E, V5L, T35S, R54S, T56G, A57S
VL: B2 VL
notes: Parental antibody
B5: ADI-34101 (antibody, human IgG4 S228P, kappa, F234A L235A, V domains shown)
VH: QVQLVESGGGVVQPGRSLRLSCAASGFTFSSYGMHWVRQAPGKGLEWVAVISYEGSNKYYADSVKGRFTISRDNSKNTLYLQMNSLRAEDTAVYYCARSRYDWSLFDIWGQGTMVTVSS
VL: EIVLTQSPGTLSLSPGERATLSCRASQSVSSSYLAWYQQKPGQAPRLLIYGASSRATGIPDRFSGSGSGTDFTLTISRLEPEDFAVYYCQQYVLYPFTFGGGTKVEIKR
notes: Parental antibody
B6: ADI-34071 (antibody, human IgG4 S228P, kappa, F234A L235A, V domains shown)
VH: EVQLVESGGGLVQPGRSLRLSCAASGFTFDDYAMHWVRQAPGKGLEWVSGISWSSGSIGYADSVKGRFTISRDNAKNSLYLQMNSLRAEDTAVYYCAKDRRYGLTYGMDVWGQGTTVTVSS
VL: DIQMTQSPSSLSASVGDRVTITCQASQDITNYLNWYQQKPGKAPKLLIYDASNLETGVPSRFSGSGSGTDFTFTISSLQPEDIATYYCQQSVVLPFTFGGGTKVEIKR
notes: Parental antibody from the yeast library
B7: ADI-34104 (antibody, human IgG4 S228P, kappa, F234A L235A, V domains shown)
VH: QVQLQESGPGLVKPSETLSLTCAVSGYSISSGYYWGWIRQPPGKGLEWIGSIYHSGSTYYNPSLKSRVTISVDTSKNQFSLKLSSVTAADTAVYYCARASIYTPPPEYFQHWGQGTLVTVSS
VL: DIQMTQSPSTLSASVGDRVTITCRASQSISSWLAWYQQKPGKAPKLLIYDASSLESGVPSRFSGSGSGTEFTLTISSLQPDDFATYYCQQSRIYSTFGGGTKVEIKR
notes: Parental antibody
B8: ADI-34074 (antibody, human IgG4 S228P, kappa, F234A L235A, V domains shown)
VH: EVQLVESGGGLVQPGRSLRLSCAASGFTFDDYAMHWVRQAPGKGLEWVSGISWSSGSIGYADSVKGRFTISRDNAKNSLYLQMNSLRAEDTAVYYCAKGKYLPTGSVDYWGQGTLVTVSS
VL: EIVLTQSPGTLSLSPGERATLSCRASQSVSSSYLAWYQQKPGQAPRLLIYGASSRATGIPDRFSGSGSGTDFTLTISRLEPEDFAVYYCQQYYDYPPITFGGGTKVEIKR
notes: Parental antibody; also called AD-34074

What was measured:
[1] = target: T1, human CD73 expressed on the cell surface; assay: cell-based or functional assay
[2] = target: T1, human CD73 expressed on the cell surface; assay: cell-based or functional assay; remark: listed apart in the source
human CD73 antigen = target: T2, human CD73 antigen; assay: ForteBio BLI; IgG on AHQ sensor, 100 nM antigen; bivalent; 1:1 model
Experimental: (§1) Briefly, the sensor was equilibrated off-line in assay buffer for 30 min, then on-line detection was carried out for 60 sec to establish a baseline. The purified antibody obtained as described above was loaded on-line to the AHQ sensor (ForteBio) for ForteBio affinity determination. The sensor loaded with the antibody was then exposed to 100 nM of human or cynomolgus monkey antigen for 5 minutes, after which the sensor was transferred to assay buffer for dissociation for 5 minutes to determine the dissociation rate. Kinetic analysis was performed by using a 1:1 binding model.

[3] = target: T3, cynomolgus monkey CD73 antigen; assay: as above
Experimental: as §1

[4] = target: T1, human CD73 expressed on the cell surface; assay: cell-based or functional assay; remark: listed apart in the source
[5] = target: T4, soluble CD73 protein (ACRO, CD3-H52H7); assay: cell-based or functional assay
[6] = target: T5, CD73 mutant Y161A/K162A/V170A; assay: flow cytometry, GS-CHO cells with CD73 mutant
Experimental: (§2) After washing three more times with PBS, the cells were resuspended in 100 ul PBS. (4) The average fluorescence value was measured in PE channel by flow cytometer. The Log₁₀ of antibody concentration was used as the horizontal coordinate and the average fluorescence value of the PE channel was used as the vertical coordinate to plot a curve, and the EC50 and the peak of the curve were compared.

[7] = target: T6, CD73 mutant K136A/Y161A/K162A/V170A; assay: flow cytometry, GS-CHO cells with CD73 mutant
Experimental: as §2

[8] = target: T7, CD73 mutant L159A/Y161A/K162A/V170A; assay: flow cytometry, GS-CHO cells with CD73 mutant
Experimental: as §2

Binder | CD73 enzymatic activity assay IC50 (Calu-6 cells, CellTiter-Glo) [1] [µg/mL] | IC50 for inhibiting the enzymatic activity of CD73 (Calu-6 cells) [2] [µg/mL] | Kd (human CD73 antigen) [nM] | Kd [3] [nM] | IC50, enzymatic activity of CD73 on NCI-H292 cells [4] [nM] | IC50, enzymatic activity of soluble CD73 at 1 hour [5] [nM] | binding result [6] | binding result [7] | binding result [8]
B1 | 0.167 | 0.177 | 0.948 | 0.96 |  |  |  |  | 
B2 |  | 0.076 |  |  | 1.47 | 0.0718 | binds | binds | binds
B3 |  | 0.073 |  |  | 1.27 | 0.0897 | binds | binds | binds
B4 | 0.089 |  | 1.23 | 1.9 |  |  |  |  | 
B5 | 0.153 |  | 1.07 | 1.57 |  |  |  |  | 
B6 | 0.171 |  | 0.892 | 1.34 |  |  |  |  | 
B7 | 0.142 |  | 0.847 |  |  |  |  |  | 
B8 | 0.476 |  | 2.12 | 3.13 |  |  |  |  | 

— patent publication US20230312741A1 (published 2023)
